Data: paper PMC4619449, “Heterodimerization of Two Pathological Mutants Enhances the Activity of Human Phosphomannomutase2” (PLoS ONE, 2015)
Changes are numbered by the printed parent chain. In names and notes the source's numbering stands. One block for each binder: values may come before it.

What was measured:
[1] = biological target: T1, F119L phosphomannomutase2 (human) (UniProt O15305)
T1 sequence: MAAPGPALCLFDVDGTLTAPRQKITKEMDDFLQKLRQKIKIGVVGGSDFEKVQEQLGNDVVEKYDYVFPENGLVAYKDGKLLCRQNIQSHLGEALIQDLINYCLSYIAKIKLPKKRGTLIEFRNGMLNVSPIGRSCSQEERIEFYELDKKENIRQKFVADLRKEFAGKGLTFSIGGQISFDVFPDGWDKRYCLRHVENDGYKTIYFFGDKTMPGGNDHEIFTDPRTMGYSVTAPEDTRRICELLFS

[2] = biological target: the molecule itself; assay: SEC; analytical, BioSep-SEC-S3000 column, Hepes 20 mM pH 7.5, NaCl 150 mM, MgCl2 5 mM, room temperature, 0.5 ml/min; wt-PMM2 10 μg, F119L 7 μg, or mixture of 5 μg wt-PMM2 and 3.5 μg F119L

corrected specific phosphoglucomutase activity (per amount of F119L) of Superdex75 fractions, F119L:R141H 1:1 to 1:3.5, compared with F119L alone; 5 μM Glc-1,6-P2 and 40 μM Glc-1P [1]: 3 fold
B1: R141H phosphomannomutase2 (enzyme)
chain: T1 sequence with L119F, R141H

B2: F119L phosphomannomutase2 (enzyme, human, UniProt O15305-1 1-246, looked up)
chain: T1 sequence
notes: Phosphomannomutase2 (PMM2), human, pathological variant p.Phe119Leu (rs80338701); also called hypomorphic mutant
binding result [2]: binds

B3: wild type phosphomannomutase2 (enzyme, human, UniProt O15305-1 1-246, looked up)
chain: T1 sequence with L119F
notes: Phosphomannomutase2 (PMM2), human, UniProt entry name PMM2_HUMAN; also called wt-PMM2; PMM2
binding result [2]: binds
